# Test results from paper doi:10.1101/2025.08.23.671895, “Detergent-free reconstitution of transmembrane proteins in giant liposomes of complex curvature by the Synthetic Membrane Transfer” (bioRxiv, 2025).
# Target: the molecule itself
# Assay: cryo-EM structure; maltoporin reconstituted in amphipol A8-35 (filaments); 2D classification and 3D reconstruction
protein,measurement,value
"maltoporin (natural protein, UniProt P02943 26-446, looked up, maltoporin, a beta-barrel transmembrane protein; One protein embedded in two polymers (SMA or amphipol A8-35); E. coli LamB is my surmise; also called maltoporin-SMA; maltoporin-Apol; source: purified using DDM-mediated extraction, detergent exchanged with SMA (bio-beads) or amphipol A8-35) VDFHGYARSGIGWTGSGGEQQCFQTTGAQSKYRLGNECETYAELKLGQEVWKEGDKSFYFDTNVAYSVAQQNDWEATDPAFREANVQGKNLIEWLPGSTIWAGKRFYQRHDVHMIDFYYWDISGPGAGLENIDVGFGKLSLAATRSSEAGGSSSFASNNIYDYTNETANDVFDVRLAQMEINPGGTLELGVDYGRANLRDNYRLVDGASKDGWLFTAEHTQSVLKGFNKFVVQYATDSMTSQGKGLSQGSGVAFDNEKFAYNINNNGHMLRILDHGAISMGDNWDMMYVGMYQDINWDNDNGTKWWTVGIRPMYKWTPIMSTVMEIGYDNVESQRTGDKNNQYKITLAQQWQAGDSIWSRPAIRVFATYAKWDEKWGYDYTGNADNNANFGKAVPADFNGGSFGRGDSDEWTFGAQMEIWW",stoichiometry N,3
